Measured values published in patent publication US8183055B2, “Peptide aptamer for neutralizing the binding of platelet antigen specific antibodies and diagnostic and therapeutic applications containing the same” (Stiftung für Diagnostische Forschung, priority 2006, dated 2012).

Columns and labels:
[1] = system: anti-HPA-1a antibody; assay: Immunocapture with wells coated with Trx-HPA-1a; type: binding, human; details: wells coated with 50 or 100 ng; sera with anti-HPA-1a (1-2), anti-HPA-1b (3), negative control (4); FIG. 6
Method: The following serums were used: two samples containing anti-HPA-1a antibody (1-2), one sample containing anti-HPA-1b antibody (3), one negative control (4). Wells were coated with 50 or 100 ng of Trx-HPA-1a protein.
Immunocapture is a classical technique to detect IgG antibodies directed against platelets according to the technique published by Rachel et al. (Med Lab Sci: 1985, 42; 194-199).
Herein, Interaction between Trx-HPA-1a and human sera containing Ab against platelet HPA-1a is tested by immunocapture. A solid phase system for the detection of IgG Antibodies to platelets assay is used (Capture P®, Immucor). The pool of platelets is replaced by Trx-HPA-1a protein. Microtitration plates with conics well are coated overnight at 4° C. with 50 ng or 100 ng of Trx-HPA-1a per well in carbonate buffer (15 mM Na2CO3, 35 mM NaHCO3 in deionised water). After washing with PBS, 50 μl serum of anonymous donor is added into the wells and incubated at 37° C. for 45 min. After six washes, 50 μl of Capture-P indicating erythrocytes (red blood cell carrying anti-human IgG antibody).

[2] = system: human IgG HPA-1a specific polyclonal alloantibodies; assay: Neutralisation (immuno-depletion) of anti-HPA-1a alloantibodies of human serum in MAIPA assay; type: binding; design: key to neutr.: (−) negative; (+) positive; (−/+) first tested negative but positive later on
Method: (§1) In this experiment, the ability of Trx-HPA-1a to neutralize the binding of human IgG HPA-1a specific polyclonal alloantibodies is determined by the MAIPA technology. The MAIPA technology is used as described by Kiefel et al. (Blood: 1987, 70; 1722-1727). The MAIPA technology is a more specific technique to detect and identify platelets' allo- and autoantibodies.
In particular, 50 μL of human serum containing or not polyclonal anti-HPA-1a or 15 ng of Camtran in 50 μL human serum without polyclonal anti-HPA-1a is incubated for 25 min at 20-25° C. with shaking incubator with 0, 1 ng, 10 ng, 100 ng or 1000 ng of Trx-HPA-1a diluted in 20 μL PBS. The mixture is preincubated 5 min with 3 μl of Ni-NTA agarose beads and the complex alloantibodies/Trx-HPA-1a is pulled down by centrifugation 13000 rpm, 2 min. 50 μl of supernatant is used to perform the MAIPA. The neutralization of serum is then determined as usual using the MAIPA technique.
Increasing concentrations of Trx-HPA-1a (0, 1 ng, 10 ng, 100 ng and 1000 ng) diluted in 30 μL PBS are added to 50 μL of human serum containing or not polyclonal anti-HPA-1a or 15 ng of Camtran diluted in 50 μL human serum without polyclonal anti-HPA-1a. After incubation at 20-25° C. for 25 min, the mixture is pre-incubated with 3 μl of Ni-NTA agarose beads and the complex alloantibodies or Camtran/Trx-HPA-1a is pulled down by centrifugation at 13000 rpm for 2 min. The neutralization of 50 μL of supernatant serum is then determined as usual using the MAIPA technique.
Blood samples (Table 1, left) are from anonymous donors or from NAIT patients. MAIPA is performed on either crude serum (Table 1, “MAIPA”) or protein A-purified immunoglobulins (Table 1, “MAIPA pure”). The vast majority of donors is found negative using both MAIPA and ELISA. […] Therefore a given sample is indexed as negative using ELISA if d 20D/dt^2=0. […] Consequently, a given sample is negative with the ELISA described herein if it fulfills one of the following criteria: optical density below 0.1 (end point) or d^2OD/dt2=0 (time course). It should be pointed out that all samples found to be negative with the end point protocol, are found negative with the time course protocol as well. […] Genotyping for HPA locus is shown (Table 1, “geno.”).

[3] = system: anti-HPA-1a antibody; assay: ELISA with plates coated with Trx-HPA-1a, detection of HPA-1a specific antibodies in human sera; type: binding; details: 150 ng Trx-HPA-1a per well
Method: The plates were rinsed two times with 200 μL PBS. Nonspecific binding was blocked by placing 200 μL PBS containing 1% bovine serum albumin (BSA) (A7030, Sigma) for 100 minutes at room temperature (RT). Then, the plates were rinsed one time with 200 μL PBS and again incubated for 45 min at RT on shaking incubator with human sera diluted (1:100 to 4:5) in 100 μl PBS+1% BSA. After three washes with PBS containing 0.05% Tween 20 and one washes with PBS, the plates were incubated for 40 min at RT on a shaking incubator with HRP-conjugated Goat Anti-Human IgG, Fc fragment specific (Jackson ImmunoResearch). After three washes with PBS+0.05% Tween 20 and two washes with PBS, the binding of anti-HPA-1 antibody was detected by addition of peroxidase substrate (OPD:1,2-phenylenediamine dihydrochloride) according to manufacturer's instructions (DakoCytomation). 20 min later, the reaction was stopped by adding 100 μL 0.5 M H2SO4. The absorption was registered at 492 nm with ELISA plate reader. The OD evolution at 492 nm depends on anti HPA-1a titer in the serum. […] Samples named Sch and Pan contained anti-HPA-1a antibody while sample Neg is a negative control from healthy donor. For high dilution (1/50) the OD is <0.05 for Neg. Serum whereas OD>0.23 for Sch and Pan. The situation is the same at low dilution (1/2) with the OD<0.11 for Neg. and >0.66 for Sch and Pan.
The detection of HPA-1a specific antibodies in human sera is determined by an ELISA test using microtitration plates (Nunc) coated overnight at 4° C. with 100 ng of Trx-HPA-1a per well in carbonate buffer. The plates are rinsed two times with 250 μL PBS. Nonspecific sites are blocked by a 1 h 30 min incubation at 20-25° C. with 250 μl PBS containing 1% bovine serum albumin (BSA) (A7030, Sigma). The plates are rinsed one time with 250 μL PBS and then incubated for 45 min at 20-25° C. on a shaking incubator with 10 μl of human sera diluted in 100 μl PBS 1% BSA. After three washes with PBS containing 0.05% Tween 20 and one wash with PBS, the plates are incubated for 40 min at 20-25° C. on a shaking incubator with HRP-conjugated Goat Anti-Human IgG, Fc fragment specific (Jackson ImmunoResearch). After three washes with PBS 0.05% Tween 20 and two washes with PBS, the binding of the anti-HPA-1 antibody is detected by addition of peroxidase substrate OPD (1,2-phenylenediamine dihydrochloride) (DakoCytomation) according to manufacter's instruction. Absorption is measured at 492 nm and followed during 25-30 min using ELISA plate reader. To stop reaction 100 μl 0.5 M H2SO4 is added on the well. Then the curve of evolution of absorbance according to the incubation's times of OPD is analyzed.

[4] = system: Camtran antibody; assay: Neutralisation of Camtran antibody in MAIPA assay; type: binding; details: 15 ng of Camtran in 50 μL human serum without polyclonal anti-HPA-1a; FIG. 8b
Method: Two different dates of production were use to compare stability in time, (b) the neutralisation of Camtran antibody in MAIPA assay with Trx-HPA-1a. 100 ng of Trx-HPA-1a is sufficient to inhibit Camtran in MAIPA assay and (c) the neutralisation of 2 human sera containing specific HPA-1a antibodies (anti-HPA-1a).
as §1
In particular, 50 μL of human serum containing or not polyclonal anti-HPA-1a or 15 ng of Camtran in 50 μL human serum without polyclonal anti-HPA-1a is incubated for 25 min at 20-25° C. with shaking incubator with 0, 1 ng, 10 ng, 100 ng or 1000 ng of Trx-HPA-1a diluted in 20 μL PBS. […] The neutralization of serum is then determined as usual using the MAIPA technique.
Increasing concentrations of Trx-HPA-1a (0, 1 ng, 10 ng, 100 ng and 1000 ng) diluted in 30 μL PBS are added to 50 μL of human serum containing or not polyclonal anti-HPA-1a or 15 ng of Camtran diluted in 50 μL human serum without polyclonal anti-HPA-1a. […] The neutralization of 50 μL of supernatant serum is then determined as usual using the MAIPA technique.

B1: Trx-HPA-1a: dodecapeptide VVAGDDPREDTW (SEQ ID NO:1) fused into the active site of thioredoxin, with His-tag; protein SEQ ID NO:2 (protein, listed as Homo sapiens)
chain: MMSDKIIHLTDDSFDTDVLKADGAILVDFWAEWCGPVVAGDDPREDTWGPCKMIAPILDEIADEYQGKLTVAKLNIDQNPGTAPKYGIRGIPTLLLFKNGEVAATKVGALSKGQLKEFLDANLVDLQHHHHHH
interaction with Trx-HPA-1a in immunocapture [1]: only detected with serums containing the anti-HPA-1a antibody
neutr. ([2]; patient sample Ac mB2): +
neutr. ([2]; patient sample Pan): +
neutr. ([2]; patient sample Sch): +
immuno-depletion of samples from NAIT patients ([2]; three samples (Pan, Sch, Ac mB2)): successfully carried out
OD at 492 nm ([3]; Neg serum (healthy donor), dilution 1/2): < 0.11
OD at 492 nm ([3]; Neg serum (healthy donor), dilution 1/50): < 0.05
OD at 492 nm ([3]; Sch and Pan sera (contain anti-HPA-1a), dilution 1/2): > 0.66
OD at 492 nm ([3]; Sch and Pan sera (contain anti-HPA-1a), dilution 1/50): > 0.23
amount sufficient to inhibit Camtran in MAIPA assay [4]: 100 ng
